Laboratory results: publication PMC4116148 (Biochemistry, 2014)
Like-named read-outs stand apart in the source and are kept apart here. Non-standard residues stand in square brackets, D forms with d. fluorescein = fluorescein: fluorescein label on the Lys side chain; code γ = not defined here

Experiments:
dynamin GTPase activity = details: biochemical assay of dynamin GTPase activity; cited from earlier work
cNPF1 [1] = biological target: T1, cNPF1 (head-to-tail cyclic); assay: fluorescence polarization competition
T1 chain: YNPFEEGG

cNPF1B = biological target: T2, cNPF1B (SMILES CC(=O)NCCCC[C@@H]1NC(=O)CNC(=O)[C@H](CCC(=O)O)NC(=O)[C@H](CCC(=O)O)NC(=O)[C@H](Cc2ccccc2)NC(=O)[C@@H]2CCCN2C(=O)[C@H](CC(N)=O)NC(=O)[C@H](Cc2ccc(O)cc2)NC1=O); assay: fluorescence polarization competition
T2 chain: cyclo(YNPFEEGK(Ac))

cAPA = biological target: T3, cAPA (head-to-tail cyclic); assay: fluorescence polarization competition
T3 chain: YAPAEEGG

cNPF2Flu [2] = biological target: T4, cNPF2Flu (reading uncertain); assay: fluorescence polarization
T4 chain: cyclo(YNPFEE[code γ]K(fluorescein))

cNPF3Flu [3] = biological target: T5, cNPF3Flu; assay: fluorescence polarization
T5 chain: cyclo(YNPFEEK(fluorescein))

cNPF6Flu [4] = biological target: T6, cNPF6Flu; assay: fluorescence polarization
T6 chain: cyclo(YNPFEQGK(fluorescein))

cNPF5Flu [5] = biological target: T7, cNPF5Flu; assay: fluorescence polarization
T7 chain: cyclo(YNPFEAGK(fluorescein))

cNPF1Flu [6] = biological target: T8, cNPF1Flu; assay: fluorescence polarization
T8 chain: cyclo(YNPFEEGK(fluorescein))

cNPF4Flu [7] = biological target: T9, cNPF4Flu; assay: fluorescence polarization
T9 chain: cyclo(YNPFAEGK(fluorescein))

cNPF2Flu [8] = biological target: T4, cNPF2Flu; assay: fluorescence polarization
cNPF3Flu [9] = biological target: T5, cNPF3Flu; assay: fluorescence polarization
cNPF6Flu [10] = biological target: T6, cNPF6Flu; assay: fluorescence polarization
cNPF5Flu [11] = biological target: T7, cNPF5Flu; assay: fluorescence polarization
cNPF1Flu [12] = biological target: T8, cNPF1Flu; assay: fluorescence polarization
cNPF4Flu [13] = biological target: T9, cNPF4Flu; assay: fluorescence polarization
cAPAFlu = biological target: T10, cAPAFlu; assay: fluorescence polarization
T10 chain: cyclo(YAPAEEGK(fluorescein))

cNPF1 [14] = biological target: T1, cNPF1; assay: ITC

## O=C(N/N=C/c1ccc(O)c(O)c1)c1cc2ccccc2cc1O [dynasore]
Dynamin GTPase activity
  IC50: ~15 µM

B1: EHD1 EH domain EH (protein)
chain: VGKDKPTYDEIFYTLSPVNGKITGANAKKEMVKSKLPNTVLGKIWKLADVDKDGLLDDEEFALANHLIKVKLEGHELPADLPPHLVPPSKRRHE
cNPF1 [1]
  IC50: 49.2 µM
cNPF1B
  IC50: 100 µM
cAPA
  IC50: > 450 µM
cNPF2Flu [2]
  Kd: 20.5 µM
cNPF3Flu [3]
  Kd: 57.8 µM
cNPF6Flu [4]
  Kd: 34 µM
cNPF5Flu [5]
  Kd: 28.3 µM
cNPF1Flu [6]
  Kd: 16.8 µM
cNPF4Flu [7]
  Kd: 46.7 µM
cNPF2Flu [8]
  Kd: 4.5 µM
cNPF3Flu [9]
  Kd: 11.3 µM
cNPF6Flu [10]
  Kd: 12.8 µM
cNPF5Flu [11]
  Kd: 8.7 µM
cNPF1Flu [12]
  Kd: 3.3 µM
cNPF4Flu [13]
  Kd: 17.4 µM
cAPAFlu
  Kd: > 67 µM
cNPF1 [14]
  Kd: 9.9 µM
